Measured values reported in the supplement of paper PMC9170038.

Tested on: MS2 coat protein
Assay: apparent KD of MS2 coat protein; designed switch direction (-1 OFF switch, 1 ON switch): -1; higher = weaker reporter binding
Summary of the method: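 Stalled E. coli RNA polymerase transcribed designed RNA switches on Illumina chips, which were then titrated with SNAP-549-labelled MS2 coat protein, doubling from 0.7 or 1.5 nM to 3 µM. Steps lasted from 0.8–1.5 h at the lowest concentration to 10–20 min at the highest. The apparent KD is each design's median over clusters of curve-fitted normalised fluorescence.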

[1] = input ligand: microRNA oligo, concentration not stated
[2] = Eterna round: R95, input ligand: FMN 200 uM
[3] = Eterna round: R95, input ligand: microRNA oligo, concentration not stated
[4] = Eterna round: R95, input ligand: none

Sequence	apparent KD of MS2 coat protein (input ligand: FMN 200 uM)	apparent KD of MS2 coat protein (input ligand: none)	further results
CCCUUGUGAGGAUAUAGUAGUUGCACAUCGAUAGAGUAACUCUAGAAGGCACAUGAGGAUCACCCAUGUACGAA [Eternabot (L1) Solution 56] (Eterna round: R97, puzzle: Exclusion 4)	70.2 nM	119 nM	
GAGAGAAUCUAGGAUAUAUCAAGAGAAGGAGAGAUAGAAGGAGAGACAUGAGGAUCACCCAUGUCUUCGUGUAG [Default title] (Eterna round: R97, puzzle: Exclusion 6)	16.6 nM	15.8 nM	
ACGCAUUGCCUUUGGUAGUGCGUAACAUGAGGAUCACCCAUGUAGGAUAUGGUAGGCUUUGCUUACCAGAAGGACAUAAUAAUA [Mat - Exclusion NG 3 - Mod of JL - D1] (Eterna round: R96, puzzle: Exclusion NG 3)	54.2 nM	26.6 nM	apparent KD of MS2 coat protein [1]: 22.7 nM
UGCCCAGCAGGAUAUACAUGAGGAUCACCCAUGUCGAUUCAGUACGACUUAGUGCAACGUAGAAGGGCUGGGCC [Eternabot (L1) Solution 84] (Eterna round: R97, puzzle: Exclusion 3)	405 nM	39.5 nM	
CGUGACUCAGGAUAUGUAUAAUAUCACAUGAGGAUCACCCAUGUCCAGCGAAAGCUGGAAGCAGAAGGGAGUCACG [Fiskers Ex 5 - 39] (puzzle: Exclusion 5)			apparent KD of MS2 coat protein [2]: 85.1 nM; apparent KD of MS2 coat protein [3]: 41.6 nM; apparent KD of MS2 coat protein [4]: 111 nM
GGAAGUAGAAACCGAUCCUACAUGAGGAUCACCCAUGUAGCAAGACGUGCACGCGAAGCUCGUCAGACUACCAGAAU [salish99_TOv1_r3_010] (puzzle: Sensor v3, turn-off variant 1)			apparent KD of MS2 coat protein [2]: 341 nM; apparent KD of MS2 coat protein [3]: 268 nM; apparent KD of MS2 coat protein [4]: 286 nM
AUAAUGUCAGGAUAUCGAACUUACUACCUCGGUAGUAAGUUCGAGAAGGGACAUGAGGAUCACCCAUGUGAUCA [E4/1-A5] (Eterna round: R97, puzzle: Exclusion 4)	68.5 nM	195 nM	
CUUUACAUGCUAAGAUCCUACAUGAGGAUCACCCAUGUGGUCCGGUGACGUGAGUCACCGGACUUAGCUCGUCUUGU [salish99_S_TOV1_R5_097] (Eterna round: R97, puzzle: Sensor, turn-off variant 1)	83.2 nM	119 nM	
UCCUCGUCAGGAUAUCCACGGAAUAGCGGGAUACCGAGCGUGGAGAAGGGACAUGAGGAUCACCCAUGUAAAAU [Edlare] (puzzle: Exclusion 4)			apparent KD of MS2 coat protein [3]: 24.9 nM
AGUCGGUCAGGAUAUGCAUACGUAGACAUGAGGAUCACCCAUGUGACGUGGGCCUGGUGUGUAGAAGGGACGAGCA [EX5 #82] (Eterna round: R97, puzzle: Exclusion 5)	32.6 nM	17.6 nM	
UACAUGAGGAUCACCCAUGUUUUGUCGUGUAUGGUAUUUAUCUAGGAUAUCAAUUUGAUUAUUUAUGAGAAGGAGAAUAUUAAU [JMF's solution 65] (Eterna round: R96, puzzle: Exclusion NG 3)	39.1 nM	39.1 nM	apparent KD of MS2 coat protein [1]: 28.8 nM
GGUGCGUUUGUGAGGAUAUGCUGGUCCUUGGUUCGGCAGAAGGCACAUGAGGAUCACCCAUGUGGUGUCGUUCC [salish99_Bmod_Ex4_047] (puzzle: Brourd's mod of Exclusion 4)			apparent KD of MS2 coat protein [3]: 13.9 nM
ACUUAUUGAGGAUAUACAGAAAAUUACAUGAGGAUCACCCAUGUUCUUCAAUGUAUAUAUGUAGAAGGCAGAAGAU [Mat - Exclusion 5 - JL Mod - D16] (Eterna round: R97, puzzle: Exclusion 5)	48.9 nM	14.5 nM	
GCAGCGUAUGUAGGAUAUCGGUCAGUUUCUGAUCGAGAAGGACAUGAGGAUCACCCAUGUUAUUUCAUGCGUGAGCAUGGCUGC [JL ENG1 3.73] (Eterna round: R96, puzzle: Exclusion NG 1)	271 nM	37.1 nM	apparent KD of MS2 coat protein [1]: 31 nM
AUGGGUCCUCACGGAGCUACAUGAGGAUCACCCAUGUGGAUUGAGGAUAUCGUAAGCCGACGGCACGAGAAGGCAGUUUACUGU [Ex NG3 #97] (Eterna round: R96, puzzle: Exclusion NG 3)	47.5 nM	23.5 nM	apparent KD of MS2 coat protein [1]: 22.8 nM
CCCUCACAUGAGGAUCACCCAUGUCAGGAUAUCUAGUCAGACAGUAUAGCACUGCUGAAGAGAAGGGACGUAAA [Labiusce] (puzzle: Exclusion 1)			apparent KD of MS2 coat protein [3]: 17 nM

Sequence	apparent KD of MS2 coat protein (input ligand: FMN 200 uM)	apparent KD of MS2 coat protein (input ligand: none)	further results
CGUAUGUGAGGAUAUGACAAUGGUAUCUUCGGAUACCAUUGUCAGAAGGUACAUGAGGAUCACCCAUGUAGAUC [Exclusion 4 - Mod Brourd Ex 4-3: 20 v.3] (puzzle: Exclusion 4)			apparent KD of MS2 coat protein [3]: 24 nM
GUUUCGAGACGGAGAUCCGACAUGAGGAUCACCCAUGUCUCCCAAGCUUUUUGCUCGUCUUAUACUCCUCUGUUCUC [Elimod 47 - Jieux - Sensor, turn-off variant 1] (Eterna round: R97, puzzle: Sensor, turn-off variant 1)	18 nM	19.4 nM	
CAAGUGUUAGGAUAUACCAGUUAAAUGCAGCUGCCGUCGGAGUAGAAGGGACAUGAGGAUCACCCAUGUCGGGA [Eternabot (L1) Solution 28] (Eterna round: R97, puzzle: Exclusion 4)	46.1 nM	35.1 nM	
AAGGAUAGAGGAUAUACAUAGAUACAGAUUCGUGUAGUCCUACAUGAGGAUCACCCAUGUAGAAGGCUAUCCUA [Fiskers Ex 2 - 13] (puzzle: Exclusion 2)			apparent KD of MS2 coat protein [3]: 11.3 nM
GCUUGCGAAGUAAGGAUAUCGGUCCGAAAGGACUACGAGAAGGUACAUGAGGAUCACCCAUGUGCGAGCAGAAU [Mod of Zala 24 - Jieux - Brourd's mod of Exclusion 4] (Eterna round: R97, puzzle: Brourd's mod of Exclusion 4)	19.6 nM	23 nM	
AACUGGACAGGAUAUGUUCUUGAGCACUUGAGGAUCACCCAAGUCAUCAAGAACUCAGGCACAGAAGGGUUUAUGU [salish99_ex5_r4_002] (Eterna round: R97, puzzle: Exclusion 5)	45.9 nM	13.6 nM	
GAGGGACAUGAGGAUCACCCAUGUGAGGAUAUGUGAGAAGGAUUGGAGAGAAAAGGAAACAGAAGGCGCGGGAG [JR_Exclu1_Sub086] (puzzle: Exclusion 1)			apparent KD of MS2 coat protein [2]: 59.5 nM; apparent KD of MS2 coat protein [3]: 50.9 nM; apparent KD of MS2 coat protein [4]: 54.7 nM
UUUUCGUAAGGAUAUGGUUAGAUCUACGAAAGUAGAUCUAACCAGAAGGUACAUGAGGAUCACCCAUGUUGAUA [Mod of Brourd 21 - Jieux - Exclusion 4] (Eterna round: R97, puzzle: Exclusion 4)	32 nM	22.5 nM	
AUAAGCUUUGAGAUCCUUAACAUGAGGAUCACCCAUGUUCGUCUUAUGAUGGUCUGAUCCCUGAGGAUCGGACCGUA [Mat - Sensor v3 - turn-off var 1 - JL Mod - D1] (puzzle: Sensor v3, turn-off variant 1)			apparent KD of MS2 coat protein [2]: 146 nM; apparent KD of MS2 coat protein [3]: 28.4 nM; apparent KD of MS2 coat protein [4]: 186 nM
GGACGGUUAGUCAGGAUAUGCUCUACCUCGGUAGAGCAGAAGGGACAUGAGGAUCACCCAUGUGAAAACUGUUC [Omei Ex4B B37] (Eterna round: R97, puzzle: Brourd's mod of Exclusion 4)	30.2 nM	24.9 nM	
UGAUCACAUGAGGAUCACCCAUGUCAGGAUAUCGUCACUGGAGCUGCGGCUCCAGUGACGAGAAGGGACAUAAU [E1/3-A3] (Eterna round: R97, puzzle: Exclusion 1)	50.8 nM	242 nM	
CCCUAGGGAGGAUAUCCAAUAUAUGACAUGAGGAUCACCCAUGUUUCCACUCGUACCUCCGGAGAAGGCCCAUACC [Ex5 #10] (Eterna round: R97, puzzle: Exclusion 5)	28 nM	28.4 nM	
UCGCUCCGUGUAGGAUAUCGCCGUUCUACUCGGCGAGAAGGACAUGAGGAUCACCCAUGUAUGUUAUUAUCACGUGUGGCGCGC [Design 54] (Eterna round: R96, puzzle: Exclusion NG 1)			apparent KD of MS2 coat protein [1]: 14.2 nM
UUAAUUAAUUAAGGCUGAAGAUCACAUGAGGAUCACCCAUGUAAGGAUAUCAGCUCGUGUAGAGCUGAGAAGGUACAUGCAGCC [ExNG3/18-B3] (Eterna round: R96, puzzle: Exclusion NG 3)	50.6 nM	336 nM	apparent KD of MS2 coat protein [1]: 345 nM
AAAUCGGAGGAGGAUAUCGUACAGGAAACGGUGCGAGAAGGUUUCACAUGAGGAUCACCCAUGUCAAAUAGCGA [EX6 #58] (Eterna round: R97, puzzle: Exclusion 6)	21 nM	16.4 nM	
